Laboratory results as given in paper PMC3990635.

B1: PAR1-Venus [mouse] / RGS2-Luciferase [not stated] (parent)
chain 1: MQSAMFLAVQHDCRPMDKSAGSGHKSEEKREKMKRTLLKDWKTRLSYFLQNSSTPGKPKTGKKSKQQAFIKPSPEEAQLWSEAFDELLASKYGLAAFRAFLKSEFCEENIEFWLACEDFKKTKSPQKLSSKARKIYTDFIEKEAPKEINIDFQTKTLIAQNIQEATSGCFTTAQKRVYSLMENNSYPRFLESEFYQDLCKKPQITTEPHAT
chain 2: SFFLRNPSENTFELVPLGDEEEEEKNESVLLEGRAVYLNISLPPHTPPPPFISEDASGYLTSPWLTLFMPSVYTIVFIVSLPLNVLAIAVFVLRMKVKKPAVVYMLHLAMADVLFVSVLPFKISYYFSGTDWQFGSGMCRFATAAFYGNMYASIMLMTVISIDRFLAVVYPIQSLSWRTLGRANFTCVVIWVMAIMGVVPLLLKEQTTRVPGLNITTCHDVLSENLMQGFYSYYFSAFSAIFFLVPLIVSTVCYTSIIRCLSSSAVANRSKKSRALFLSAAVFCIFIVCFGPTNVLLIVHYLFLSDSPGTEAAYFAYLLCVCVSSVSCCIDPLIYYYASSECQRHLYSILCCKESSDPNSCNSTGQLMPSKMDTCSSHLNNSIYKKLLA

Variants of: B1
Test: BRET assay in live COS7 cells
Details: with RGS2-Luciferase; RGS2-Luc 35 ng; PAR1R205A-Ven 1.5 µg; no Gα11; no TFLLR; parent: 0.028; read off a plot

Row | response | Variant
1 | 0.032 | chain 2 SFFLRNPSENTFELVPLGDEEEEEKNESVLLEGRAVYLNISLPPHTPPPPFISEDASGYLTSPWLTLFMPSVYTIVFIVSLPLNVLAIAVFVLRMKVKKPAVVYMLHLAMADVLFVSVLPFKISYYFSGTDWQFGSGMCRFATAAFYGNMYASIMLMTVISIDAFLAVVYPIQSLSWRTLGRANFTCVVIWVMAIMGVVPLLLKEQTTRVPGLNITTCHDVLSENLMQGFYSYYFSAFSAIFFLVPLIVSTVCYTSIIRCLSSSAVANRSKKSRALFLSAAVFCIFIVCFGPTNVLLIVHYLFLSDSPGTEAAYFAYLLCVCVSSVSCCIDPLIYYYASSECQRHLYSILCCKESSDPNSCNSTGQLMPSKMDTCSSHLNNSIYKKLLA [chain 2 R164A]

Same assay, conditions: with RGS2-Luciferase; RGS2-Luc 35 ng; PAR1R205A-Ven 1.5 µg; no Gα11; with TFLLR; parent: 0.048; read off a plot

Row | response | Variant
2 | 0.037 | chain 2 SFFLRNPSENTFELVPLGDEEEEEKNESVLLEGRAVYLNISLPPHTPPPPFISEDASGYLTSPWLTLFMPSVYTIVFIVSLPLNVLAIAVFVLRMKVKKPAVVYMLHLAMADVLFVSVLPFKISYYFSGTDWQFGSGMCRFATAAFYGNMYASIMLMTVISIDAFLAVVYPIQSLSWRTLGRANFTCVVIWVMAIMGVVPLLLKEQTTRVPGLNITTCHDVLSENLMQGFYSYYFSAFSAIFFLVPLIVSTVCYTSIIRCLSSSAVANRSKKSRALFLSAAVFCIFIVCFGPTNVLLIVHYLFLSDSPGTEAAYFAYLLCVCVSSVSCCIDPLIYYYASSECQRHLYSILCCKESSDPNSCNSTGQLMPSKMDTCSSHLNNSIYKKLLA [chain 2 R164A]

Same assay, conditions: with RGS2-Luciferase; RGS2-Luc 35 ng; PAR1R205A-Ven 1.5 µg; with 0.5 µg untagged Gα11; no TFLLR; parent: 0.062; read off a plot

Row | response | Variant
3 | 0.047 | chain 2 SFFLRNPSENTFELVPLGDEEEEEKNESVLLEGRAVYLNISLPPHTPPPPFISEDASGYLTSPWLTLFMPSVYTIVFIVSLPLNVLAIAVFVLRMKVKKPAVVYMLHLAMADVLFVSVLPFKISYYFSGTDWQFGSGMCRFATAAFYGNMYASIMLMTVISIDAFLAVVYPIQSLSWRTLGRANFTCVVIWVMAIMGVVPLLLKEQTTRVPGLNITTCHDVLSENLMQGFYSYYFSAFSAIFFLVPLIVSTVCYTSIIRCLSSSAVANRSKKSRALFLSAAVFCIFIVCFGPTNVLLIVHYLFLSDSPGTEAAYFAYLLCVCVSSVSCCIDPLIYYYASSECQRHLYSILCCKESSDPNSCNSTGQLMPSKMDTCSSHLNNSIYKKLLA [chain 2 R164A]

Same assay, conditions: with RGS2-Luciferase; RGS2-Luc 35 ng; PAR1R205A-Ven 1.5 µg; with 0.5 µg untagged Gα11; with TFLLR; parent: 0.086; read off a plot

Row | response | Variant
4 | 0.048 | chain 2 SFFLRNPSENTFELVPLGDEEEEEKNESVLLEGRAVYLNISLPPHTPPPPFISEDASGYLTSPWLTLFMPSVYTIVFIVSLPLNVLAIAVFVLRMKVKKPAVVYMLHLAMADVLFVSVLPFKISYYFSGTDWQFGSGMCRFATAAFYGNMYASIMLMTVISIDAFLAVVYPIQSLSWRTLGRANFTCVVIWVMAIMGVVPLLLKEQTTRVPGLNITTCHDVLSENLMQGFYSYYFSAFSAIFFLVPLIVSTVCYTSIIRCLSSSAVANRSKKSRALFLSAAVFCIFIVCFGPTNVLLIVHYLFLSDSPGTEAAYFAYLLCVCVSSVSCCIDPLIYYYASSECQRHLYSILCCKESSDPNSCNSTGQLMPSKMDTCSSHLNNSIYKKLLA [chain 2 R164A]
